{
  "source": "IntAct's records for PubMed 18033301",
  "parents": {"B1": {"name": "Clathrin interactor 1 (Homo sapiens), Q14677 (parent)", "chain": "MLNMWKVRELVDKATNVVMNYSEIESKVREATNDDPWGPSGQLMGEIAKATFMYEQFPELMNMLWSRMLKDNKKNWRRVYKSLLLLAYLIRNGSERVVTSAREHIYDLRSLENYHFVDEHGKDQGINIRQKVKELVEFAQDDDRLREERKKAKKNKDKYVGVSSDSVGGFRYSERYDPEPKSKWDEEWDKNKSAFPFSDKLGELSDKIGSTIDDTISKFRRKDREDSPERCSDSDEEKKARRGRSPKGEFKDEEETVTTKHIHITQATETTTTRHKRTANPSKTIDLGAAAHYTGDKASPDQNASTHTPQSSVKTSVPSSKSSGDLVDLFDGTSQSTGGSADLFGGFADFGSAAASGSFPSQVTATSGNGDFGDWSAFNQAPSGPVASSGEFFGSASQPAVELVSGSQSALGPPPAASNSSDLFDLMGSSQATMTSSQSMNFSMMSTNTVGLGLPMSRSQNTDMVQKSVSKTLPSTWSDPSVNISLDNLLPGMQPSKPQQPSLNTMIQQQNMQQPMNVMTQSFGAVNLSSPSNMLPVRPQTNALIGGPMPMSMPNVMTGTMGMAPLGNTPMMNQSMMGMNMNIGMSAAGMGLTGTMGMGMPNIAMTSGTVQPKQDAFANFANFSK", "partner": "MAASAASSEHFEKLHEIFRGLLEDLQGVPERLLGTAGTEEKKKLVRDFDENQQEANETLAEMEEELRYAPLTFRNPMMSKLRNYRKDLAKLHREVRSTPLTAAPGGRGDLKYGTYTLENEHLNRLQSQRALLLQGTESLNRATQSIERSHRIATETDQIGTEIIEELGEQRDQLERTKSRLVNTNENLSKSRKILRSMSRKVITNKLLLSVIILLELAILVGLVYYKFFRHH"}, "B2": {"name": "Vesicle transport through interaction with t-SNAREs homolog 1B (Mus musculus), O88384 (parent)", "chain": "B1 partner", "partner": "B1 chain"}},
  "data": [
    {"variants_of": "B1", "details": "with vti1b_mouse Vti1b", "values": [
      {"variant": "F52D", "effect of a mutation on the interaction": "disrupting interaction strength"},
      {"variant": "R96S", "effect of a mutation on the interaction": "disrupting interaction strength"},
      {"variant": "R146E", "effect of a mutation on the interaction": "disrupting interaction strength"},
      {"variant": "M53D;Y54D", "effect of a mutation on the interaction": "disrupting interaction strength"}
    ]},
    {"variants_of": "B2", "details": "with epn4_human CLINT1, Q14677", "values": [
      {"variant": "S8W", "effect of a mutation on the interaction": "disrupting interaction strength"},
      {"variant": "E12A", "effect of a mutation on the interaction": "disrupting interaction strength"},
      {"variant": "E23R", "effect of a mutation on the interaction": "disrupting interaction strength"},
      {"variant": "E65W", "effect of a mutation on the interaction": "disrupting interaction strength"},
      {"variant": "F73S", "effect of a mutation on the interaction": "disrupting interaction strength"}
    ]}
  ]
}
